Reference: patent publication US20250027068
Numbering of substitutions follows the chain as printed.

Target: pooled human IgG (human IgG1,2,3 and 4)

B1: PRT-316 (protein)
chain: MTITSVWTKGVTPPTPEDFRKNNEDVLHAPYVANQGWYDITKTFDGKDNLLCGAATAGNMLHWWFDQNKEEIERYLKKHPEKQKIIFNNQELFDVKAAIDTKDSQTNSKLFNYFRDKAFPNLSARQLGVMPDLVLDMFINGYYLNLGKTQSTDVNRPYQDKDKRGGIFDAVFTRGDQTTLLTARHDLKNKGLNEISDLIKQELTEGKALALSHTYANVRINHVINLWGADFDAEGNLIAIYVTDSDANASIGMKKYFVGRNANGKVAISAKKIEGDNIGAQVLGLFTLSTGQDIWQKLS
Protein B1 has an Enzyme Activity Endpoint Assay: Fab′2 of 772 ng/µL, an Enzyme Activity Endpoint Assay: Fc of 347 ng/µL and an Enzyme Activity Endpoint Assay: IgG of 80 ng/µL. The Enzyme Activity Endpoint Assay: scIgG was 0 ng/µL.

B2: PRT-333 (protein)
chain: B1 chain with K21E, N88G, N121G, M130F, D176V, A249P
B2 was tested, and the Enzyme Activity Endpoint Assay (purified): Fab'2 was 794 ng/µL, the Enzyme Activity Endpoint Assay (purified): Fc was 448 ng/µL and the Enzyme Activity Endpoint Assay (purified): IgG was 0 ng/µL. It also gave an Enzyme Activity Endpoint Assay (purified): scIgG of 0 ng/µL.

B3: PRT-332 (protein)
chain: B1 chain with K21E, L92W, N121G, M130F, G147P, D176V, F257A, R260V
Protein B3 has an Enzyme Activity Endpoint Assay: Fab′2 of 409 ng/µL, an Enzyme Activity Endpoint Assay: Fc of 277 ng/µL and an Enzyme Activity Endpoint Assay: IgG of 0 ng/µL. The Enzyme Activity Endpoint Assay: scIgG was 177 ng/µL.

B4: PRT-317 (protein)
chain: B1 chain with K21E, T290L
With B4 the Enzyme Activity Endpoint Assay: Fab′2 was 798 ng/µL, the Enzyme Activity Endpoint Assay: Fc was 453 ng/µL and the Enzyme Activity Endpoint Assay: IgG was 0 ng/µL. It also gave an Enzyme Activity Endpoint Assay: scIgG of 0 ng/µL.

B5: PRT-324 (protein)
chain: B1 chain with K21E, N88G, A249P
For B5, the Enzyme Activity Endpoint Assay: Fab′2 was 665 ng/µL, the Enzyme Activity Endpoint Assay: Fc was 291 ng/µL and the Enzyme Activity Endpoint Assay: IgG was 0 ng/µL. It also gave an Enzyme Activity Endpoint Assay: scIgG of 0 ng/µL.

B6: PRT-318 (protein)
chain: B1 chain with K21Y, L92W, N112D, R260V, T290L
For B6, the Enzyme Activity Endpoint Assay (purified): Fab'2 was 641 ng/µL, the Enzyme Activity Endpoint Assay (purified): Fc was 365 ng/µL and the Enzyme Activity Endpoint Assay (purified): IgG was 110 ng/µL. The Enzyme Activity Endpoint Assay (purified): scIgG was 100 ng/µL.

B7: PRT-326 (protein)
chain: B1 chain with K21E, N88G, N112D, N236E, A249P, I294Q
With B7 the Enzyme Activity Endpoint Assay (purified): Fab'2 was 588 ng/µL, the Enzyme Activity Endpoint Assay (purified): Fc was 429 ng/µL and the Enzyme Activity Endpoint Assay (purified): IgG was 458 ng/µL. The Enzyme Activity Endpoint Assay (purified): scIgG was 0 ng/µL.

B8: PRT-325 (protein)
chain: B1 chain with K21E, N88G, N112D, N236E, A249P
With B8 the Enzyme Activity Endpoint Assay (purified): Fab'2 was 930 ng/µL, the Enzyme Activity Endpoint Assay (purified): Fc was 466 ng/µL and the Enzyme Activity Endpoint Assay (purified): IgG was 78 ng/µL. It also gave an Enzyme Activity Endpoint Assay (purified): scIgG of 0 ng/µL.

B9: PRT-308 (protein)
chain: MQITSVWTKGVTPLTPEQFRENNEDVIHAPYLAHQGWYDITKAFDGKDNLLCGAATAGNMLHWWFDQNKTEIEAYLSKHPEKQKIIFNNQELFDLKAAIDTKDSQTNSQLFNYFRDKAFPNLSARQLGVMPDLVLDMFINGYYLNVGKTQSTDVNRPYQDKDKRGGIFDAVFTRGDQTTLLTARHDLKNKGLNDISTIIKQELTEGRALALSHTYANVSISHVINLWGADFDAEGNLEAIYVTDSDANASIGMKKYFVGRNAHGHVAISAKKIEGENIGAQVLGLFTLSLGKDIWQKLS
Protein B9 has an Enzyme Activity Endpoint Assay: Fab′2 of 405 ng/µL, an Enzyme Activity Endpoint Assay: Fc of 204 ng/µL and an Enzyme Activity Endpoint Assay: IgG of 59 ng/µL. It also gave an Enzyme Activity Endpoint Assay: scIgG of 106 ng/µL.

B10: PRT-311 (protein)
chain: B9 chain with L92W, G147P, D232N, F257A, R260I, L290S
With B10 the Enzyme Activity Endpoint Assay (purified): Fab'2 was 261 ng/µL, the Enzyme Activity Endpoint Assay (purified): Fc was 295 ng/µL and the Enzyme Activity Endpoint Assay (purified): IgG was 109 ng/µL. For the same protein, the Enzyme Activity Endpoint Assay (purified): scIgG was 496 ng/µL.

B11: PRT-309 (protein)
chain: B9 chain with N88G, N112D, L290S, I294Q
For B11, the Enzyme Activity Endpoint Assay: Fab′2 was 0 ng/µL, the Enzyme Activity Endpoint Assay: Fc was 0 ng/µL and the Enzyme Activity Endpoint Assay: IgG was 1650 ng/µL. For the same protein, the Enzyme Activity Endpoint Assay: scIgG was 0 ng/µL.

B12: PRT-310 (protein)
chain: B9 chain with N112D, G147F, L290S, I294Q
B12 was tested, and the Enzyme Activity Endpoint Assay (purified): Fab'2 was 1220 ng/µL, the Enzyme Activity Endpoint Assay (purified): Fc was 488 ng/µL and the Enzyme Activity Endpoint Assay (purified): IgG was 0 ng/µL. The Enzyme Activity Endpoint Assay (purified): scIgG was 0 ng/µL.

B13: PRT-292 (protein)
chain: MVTSVWTKGVTPPADFTQGEDVFHAPYDANQGWYDITKTFNGKDDLLCGAATAGNMLHWWFDQNKEYIEAYLKKHPEKQKIMFGDQELLDVRKAINTKGSQKNSELFNYFRDKAFPNLSARRLGVMPDLVLDMFINGYYLNVTKTQTTDVNRTYQEKDKRGGIFDAVFTRGDQSKLLTSRHDFKEKGLKEISDLIKQELTEGKALGLSHTYANVRISHVINLWGADFDSDGNLKAIYVTDSDSNASIGMKKYFVGVNSAGKVAISAKEIKEDNIGAQVLGLFTLSTGQDIWNQTN
Protein B13 has an Enzyme Activity Endpoint Assay: Fab′2 of 758 ng/µL, an Enzyme Activity Endpoint Assay: Fc of 359 ng/µL and an Enzyme Activity Endpoint Assay: IgG of 0 ng/µL. For the same protein, the Enzyme Activity Endpoint Assay: scIgG was 0 ng/µL.

B14: PRT-303 (protein)
chain: B13 chain with A14T, T17I, Q18K, N30G, F253G
For B14, the Enzyme Activity Endpoint Assay (purified): Fab'2 was 1080 ng/µL, the Enzyme Activity Endpoint Assay (purified): Fc was 482 ng/µL and the Enzyme Activity Endpoint Assay (purified): IgG was 0 ng/µL. For the same protein, the Enzyme Activity Endpoint Assay (purified): scIgG was 0 ng/µL.

B15: PRT-301 (protein)
chain: B13 chain with A14T, T17I, Q18K, N30G
Protein B15 has an Enzyme Activity Endpoint Assay: Fab′2 of 0 ng/µL, an Enzyme Activity Endpoint Assay: Fc of 0 ng/µL and an Enzyme Activity Endpoint Assay: IgG of 1680 ng/µL. It also gave an Enzyme Activity Endpoint Assay: scIgG of 0 ng/µL.

B16: PRT-300 (protein)
chain: B13 chain with A14T, T17I, Q18K, D28K, N30G, I216L, S217N, A259S
B16 gave an Enzyme Activity Endpoint Assay: Fab′2 of 333 ng/µL, an Enzyme Activity Endpoint Assay: Fc of 274 ng/µL and an Enzyme Activity Endpoint Assay: IgG of 276 ng/µL. The Enzyme Activity Endpoint Assay: scIgG was 43 ng/µL.

B17: PRT-294 (protein)
chain: B13 chain with F253G
B17 was tested, and the Enzyme Activity Endpoint Assay (purified): Fab'2 was 651 ng/µL, the Enzyme Activity Endpoint Assay (purified): Fc was 456 ng/µL and the Enzyme Activity Endpoint Assay (purified): IgG was 506 ng/µL. It also gave an Enzyme Activity Endpoint Assay (purified): scIgG of 5 ng/µL.

B18: PRT-295 (protein)
chain: B13 chain with A259S
In the case of B18, the Enzyme Activity Endpoint Assay (purified): Fab'2 is reported as 529 ng/µL, the Enzyme Activity Endpoint Assay (purified): Fc is reported as 398 ng/µL and the Enzyme Activity Endpoint Assay (purified): IgG is reported as 446 ng/µL. For the same protein, the Enzyme Activity Endpoint Assay (purified): scIgG was 0 ng/µL.

B19: PRT-293 (protein)
chain: B13 chain with D28V, I216L, S217N, F253G
Work on B19 yielded an Enzyme Activity Endpoint Assay: Fab′2 of 11 ng/µL, an Enzyme Activity Endpoint Assay: Fc of 0 ng/µL and an Enzyme Activity Endpoint Assay: IgG of 1260 ng/µL. It also gave an Enzyme Activity Endpoint Assay: scIgG of 0 ng/µL.

B20: PRT-302 (protein)
chain: B13 chain with A14T, T17I, Q18K, D28K, N30G, I216L, S217N, F253G
In the case of B20, the Enzyme Activity Endpoint Assay (purified): Fab'2 is reported as 1130 ng/µL, the Enzyme Activity Endpoint Assay (purified): Fc is reported as 461 ng/µL and the Enzyme Activity Endpoint Assay (purified): IgG is reported as 0 ng/µL. It also gave an Enzyme Activity Endpoint Assay (purified): scIgG of 0 ng/µL.
